Measured values from patent publication US20220064326A1.

Target: recombinant EGFR-Fc (AcroBiosystems) (human) (UniProt P00533)
Assay: BLI (Octet QK), biotinylated binder on streptavidin sensor, EGFR-Fc 0-100 nM, 1:1 global fit

For “AFF.EGFR (Z domain-based EGFR-binding affibody ZEGFR:1907) (designed binder)”, which Kd is on record?
The Kd was 3.2 nM.
